Laboratory results published in the supplement of paper PMC7877785.
± gives the uncertainty stated by the source.

Experiment: self-splicing fitness, log relative to wild type (ln ratio); higher = more splicing; Tetrahymena group I intron in knt gene, E. coli kanamycin selection, DiMSum; sequences stand for … in CUCUCU…GGAGGGAAAAGUUAUCAGGCAUGCACCUGGUAGCUAGUCUUUAAACCAAUAGAUUGCAUCGGUUUAAAAGGCAAGACCGUCAAAUUGCGGGAAAGGGGUCAACAGCCGUUCAGUACCAAGUCUCAGGGGAAACUUUGAGAUGGCCUUGCAAAGGGUAUGGUAAUAAGCUGACGGACAUGGUCCUAACCACGCAGCCAAGUCCUAAGUCAACAGAUCUUCUGUUGAUAUGGAUGCAGUUCACAGACUAAAUGUCGGUCGGGGAAGAUGUAUUCUUCUCAUAAGAUAUAGUCGGACCUCUCCUUAAUGGGAGCUAGCGGAUGAAGUGAUGCAACACUGGAGCCGCUGGGAACUAAUUUGUAUGCGAAAGUAUAUUGAUUAGUUUUGGAGUACUCGUGGUCG
Procedure, shortened: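 Fitness was computed with DiMSum as the error-weighted combination of replicate fold changes, kanamycin versus none, each normalised to wild type. The library randomised all eight intron nucleotides of the P1ex region, with the intron placed in the knt kanamycin-resistance gene on pET-22b(+) in E. coli BL21(DE3). Six replicate transformations were grown overnight at 37°C or 30°C on LB agar with or without 25 μg/mL kanamycin, plus 100 μg/mL carbenicillin, 50 μM IPTG and 0.2% rhamnose. Pooled colonies were amplicon-sequenced on an Illumina HiSeq 2500.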

Row | Sequence | self-splicing fitness (ln) (30 °C) | self-splicing fitness (ln) (37 °C)
1 | CUCAAGCAAUAUUACGAAUU | -4.18 ± 0.28 | -3.03 ± 0.29
2 | CUCAAGCAAUAUUACGACCU | -2.96 ± 0.15 | -1.34 ± 0.17
3 | CUCAAGCAAUAUUACGAGAU | -3.89 ± 0.2 | -0.936 ± 0.12
4 | CUCAAGCAAUAUUACGAGGA | -1.9 ± 0.13 | -1.66 ± 0.13
5 | CUCAAGCAAUAUUACGAGUG | -2.91 ± 0.11 | -1.41 ± 0.086
6 | CUCAAGCAAUAUUACGAUAG | -2 ± 0.1 | -0.283 ± 0.1
7 | CUCAAGCAAUAUUACGAUUC | -4.11 ± 0.27 | -2.26 ± 0.24
8 | CUCAAGCAAUAUUACGCAGC | -4.03 ± 0.43 | -1.9 ± 0.44
9 | CUCAAGCAAUAUUACGCAUA | -3.29 ± 0.22 | -3.07 ± 0.34
10 | CUCAAGCAAUAUUACGCCCC | – | -1.28 ± 0.5
11 | CUCAAGCAAUAUUACGCGAU | -2.3 ± 0.11 | -0.996 ± 0.11
12 | CUCAAGCAAUAUUACGCGGU | -3.45 ± 0.19 | -1.07 ± 0.12
13 | CUCAAGCAAUAUUACGCUUA | -2.62 ± 0.27 | -3.26 ± 0.37
14 | CUCAAGCAAUAUUACGCUUG | -3.58 ± 0.18 | -2.38 ± 0.23
15 | CUCAAGCAAUAUUACGGGAG | -2.91 ± 0.17 | -1.77 ± 0.18
16 | CUCAAGCAAUAUUACGGUUG | -3.38 ± 0.19 | -2.56 ± 0.22
17 | CUCAAGCAAUAUUACGUAGA | -3.23 ± 0.1 | -1.53 ± 0.11

Row | Sequence | self-splicing fitness (ln) (30 °C) | self-splicing fitness (ln) (37 °C)
18 | CUCAAGCAAUAUUACGUGAA | -0.683 ± 0.077 | -0.629 ± 0.12
19 | CUCAAGCAAUAUUACGUGCG | -2.81 ± 0.14 | -0.8 ± 0.12
20 | CUCAAGCAAUAUUACGUGGA | -3.76 ± 0.18 | -1.19 ± 0.084
21 | CUCAAGCAAUAUUACGUUGG | -2.93 ± 0.12 | -1.5 ± 0.13
22 | CUCCAGCAAUAUUACGACAA | -2.27 ± 0.23 | -2.29 ± 0.31
23 | CUCCAGCAAUAUUACGACAU | -4.008 ± 0.026 | -2.95 ± 0.039
24 | CUCCAGCAAUAUUACGACUG | -3.12 ± 0.14 | -2.83 ± 0.16
25 | CUCCAGCAAUAUUACGAGGC | -3.02 ± 0.3 | –
26 | CUCCAGCAAUAUUACGCACA | -1.38 ± 0.15 | -2.29 ± 0.27
27 | CUCCAGCAAUAUUACGCACC | – | -2.4 ± 0.45
28 | CUCCAGCAAUAUUACGCCAC | -2.7 ± 0.35 | –
29 | CUCCAGCAAUAUUACGCCAG | -3.19 ± 0.37 | -2.08 ± 0.46
30 | CUCCAGCAAUAUUACGCCUU | -2.33 ± 0.18 | -2.29 ± 0.27
31 | CUCCAGCAAUAUUACGCGGA | -3.39 ± 0.2 | -3.02 ± 0.22
32 | CUCCAGCAAUAUUACGCGGG | -3.86 ± 0.24 | -1.82 ± 0.23
33 | CUCCAGCAAUAUUACGCGUG | -2.19 ± 0.075 | -1.29 ± 0.085
34 | CUCCAGCAAUAUUACGCUAU | -3.89 ± 0.33 | -2.44 ± 0.22
